According to patent publication US20140087995A1 (published 2014):
Numbered stars: 1 amine (or outer) side, 2 acyl side, 3 side chain; on linkers, the order of the positions; unused ones are H or OH. Bridge positions count the residues as written; N and C are the ends. Side chains are listed from the residue outwards. Ends that are not written are not given here. * marks the point of attachment. C20 diacid = O=C(O)CCCCCCCCCCCCCCCCCCC(=O)*; γGlu = O=C(O)[C@H](CCC(=O)[*:2])N[*:1]; AEEA = NCCOCCOCC(=O)O

B1: N^ε1-[2-[2-[2-[[(4S)-4-carboxy-4-(19-carboxynonadecanoylamino)butanoyl]amino]ethoxy]ethoxy]acetyl]-[His14,Arg17,Pro21,Pro27]-h-amylin (peptide)
peptide: K([AEEA-γGlu-C20 diacid])CNTATCATQRLAHFLRHSSPNFGAIPSSTNVGSNTY-NH2
modifications: disulfide 2-7; N-terminus assumed
SMILES: CC[C@H](C)[C@H](NC(=O)[C@H](C)NC(=O)CNC(=O)[C@H](Cc1ccccc1)NC(=O)[C@H](CC(N)=O)NC(=O)[C@@H]1CCCN1C(=O)[C@H](CO)NC(=O)[C@H](CO)NC(=O)[C@H](Cc1c[nH]cn1)NC(=O)[C@H](CCCNC(=N)N)NC(=O)[C@H](CC(C)C)NC(=O)[C@H](Cc1ccccc1)NC(=O)[C@H](Cc1c[nH]cn1)NC(=O)[C@H](C)NC(=O)[C@H](CC(C)C)NC(=O)[C@H](CCCNC(=N)N)NC(=O)[C@H](CCC(N)=O)NC(=O)[C@@H](NC(=O)[C@H](C)NC(=O)[C@@H]1CSSC[C@H](NC(=O)[C@@H](N)CCCCNC(=O)COCCOCCNC(=O)CC[C@H](NC(=O)CCCCCCCCCCCCCCCCCCC(=O)O)C(=O)O)C(=O)N[C@@H](CC(N)=O)C(=O)N[C@@H]([C@@H](C)O)C(=O)N[C@@H](C)C(=O)N[C@@H]([C@@H](C)O)C(=O)N1)[C@@H](C)O)C(=O)N1CCC[C@H]1C(=O)N[C@@H](CO)C(=O)N[C@@H](CO)C(=O)N[C@H](C(=O)N[C@@H](CC(N)=O)C(=O)N[C@H](C(=O)NCC(=O)N[C@@H](CO)C(=O)N[C@@H](CC(N)=O)C(=O)N[C@H](C(=O)N[C@@H](Cc1ccc(O)cc1)C(N)=O)[C@@H](C)O)C(C)C)[C@@H](C)O
notes: Analogue of human amylin; also called compound 69
B2: N^ε1-[2-[2-[2-(19-carboxynonadecanoylamino)ethoxy]ethoxy]acetyl]-[Arg17,Pro21,Pro27,His34]-h-amylin (peptide)
peptide: K([AEEA-C20 diacid])CNTATCATQRLANFLRHSSPNFGAIPSSTNVGHNTY-NH2
modifications: disulfide 2-7; N-terminus assumed
SMILES: CC[C@H](C)[C@H](NC(=O)[C@H](C)NC(=O)CNC(=O)[C@H](Cc1ccccc1)NC(=O)[C@H](CC(N)=O)NC(=O)[C@@H]1CCCN1C(=O)[C@H](CO)NC(=O)[C@H](CO)NC(=O)[C@H](Cc1c[nH]cn1)NC(=O)[C@H](CCCNC(=N)N)NC(=O)[C@H](CC(C)C)NC(=O)[C@H](Cc1ccccc1)NC(=O)[C@H](CC(N)=O)NC(=O)[C@H](C)NC(=O)[C@H](CC(C)C)NC(=O)[C@H](CCCNC(=N)N)NC(=O)[C@H](CCC(N)=O)NC(=O)[C@@H](NC(=O)[C@H](C)NC(=O)[C@@H]1CSSC[C@H](NC(=O)[C@@H](N)CCCCNC(=O)COCCOCCNC(=O)CCCCCCCCCCCCCCCCCCC(=O)O)C(=O)N[C@@H](CC(N)=O)C(=O)N[C@@H]([C@@H](C)O)C(=O)N[C@@H](C)C(=O)N[C@@H]([C@@H](C)O)C(=O)N1)[C@@H](C)O)C(=O)N1CCC[C@H]1C(=O)N[C@@H](CO)C(=O)N[C@@H](CO)C(=O)N[C@H](C(=O)N[C@@H](CC(N)=O)C(=O)N[C@H](C(=O)NCC(=O)N[C@@H](Cc1c[nH]cn1)C(=O)N[C@@H](CC(N)=O)C(=O)N[C@H](C(=O)N[C@@H](Cc1ccc(O)cc1)C(N)=O)[C@@H](C)O)C(C)C)[C@@H](C)O
notes: Analogue of human amylin; also called compound 91

How the values were obtained:
rat calcitonin receptor [1] = molecular target: T1, rat calcitonin receptor (rat, UniProt P32214 25-516); experiment: ratio of binding IC50s: rat calcitonin receptor / rat amylin receptor (reference)
T1 construct: whole, on cells; Membranes prepared from transiently transfected BHK tk'ts 13 cells (Assay VIII); also called rCTR; rCT
T1 sequence (looked up): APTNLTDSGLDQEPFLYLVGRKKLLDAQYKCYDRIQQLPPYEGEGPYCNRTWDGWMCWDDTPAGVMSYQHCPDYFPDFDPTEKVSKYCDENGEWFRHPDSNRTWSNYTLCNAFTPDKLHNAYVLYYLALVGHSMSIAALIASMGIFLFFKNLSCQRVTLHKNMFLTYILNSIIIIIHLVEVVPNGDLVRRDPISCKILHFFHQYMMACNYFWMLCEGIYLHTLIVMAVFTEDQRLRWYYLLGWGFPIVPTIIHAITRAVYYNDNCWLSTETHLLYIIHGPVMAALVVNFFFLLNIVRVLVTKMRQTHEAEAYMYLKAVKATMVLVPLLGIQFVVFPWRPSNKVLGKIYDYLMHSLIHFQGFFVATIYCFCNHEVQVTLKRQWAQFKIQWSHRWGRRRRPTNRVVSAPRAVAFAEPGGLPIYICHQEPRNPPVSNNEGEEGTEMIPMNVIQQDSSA

[2] = molecular target: T2, human calcitonin receptor (human, UniProt P30988 25-474); experiment: ratio of binding IC50s: human calcitonin receptor / human amylin receptor (reference)
T2 construct: whole, on cells; Membranes prepared from a stably transfected BHK cell line (Assay VII); also called hCTR; hCT
T2 sequence (looked up): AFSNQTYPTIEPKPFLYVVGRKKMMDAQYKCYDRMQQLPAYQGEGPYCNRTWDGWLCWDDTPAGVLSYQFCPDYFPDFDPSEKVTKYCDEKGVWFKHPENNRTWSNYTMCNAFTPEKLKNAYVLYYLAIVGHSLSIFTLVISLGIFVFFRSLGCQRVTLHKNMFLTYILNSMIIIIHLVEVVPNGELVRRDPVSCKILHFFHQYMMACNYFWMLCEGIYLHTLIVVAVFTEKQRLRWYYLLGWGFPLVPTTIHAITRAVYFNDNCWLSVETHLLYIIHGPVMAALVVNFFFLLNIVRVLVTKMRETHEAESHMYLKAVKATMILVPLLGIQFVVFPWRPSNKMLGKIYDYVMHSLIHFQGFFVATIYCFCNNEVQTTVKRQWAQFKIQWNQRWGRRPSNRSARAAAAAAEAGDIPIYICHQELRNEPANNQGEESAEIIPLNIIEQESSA
Method: The resulting pellet was resuspended, homogenized and centrifuged (20.000 rpm, 15 min) in a buffer containing 20 mM Na-HEPES and 0.1 mM EDTA (pH 7.4, buffer 2). The resulting pellet was resuspended in buffer 2 and protein concentration was measured (BCA protein Assay, Pierce). The homogenate was kept cold during the whole procedure. The membranes were kept at −80° C. until use. The assay was performed in a 384 well Optiplate (PerkinElmer) in a total volume of 40 ul. Membranes were mixed with SPA beads. Final concentration of membranes 35 ng/μL final and SPA beads was 0.05 mg/well. Test-compounds were dissolved in DMSO and further diluted in assay buffer (50 mM Hepes, pH 7.4, 1 mM CaCl2, 5 mM MgCl₂, 0.1% OA and 0.02% Tween20). […] The final mixture was incubated with shaking at 400 rpm for 120 min at 25° C. prior to centrifugation (1500 rpm, 10 min). Samples were analyzed on TopCounter™ (Packard). The IC₅₀ was calculated using (one site binding competition analysis) GraphPad Prism5 as a measure of receptor affinity.
Membranes were prepared in the following way; the cells were rinsed with PBS and incubated with Versene for approximately 5 min before harvesting. The cells were flushed with PBS and the cell-suspension was centrifuged for 5 min at 1000 rpm. Cells were homogenized (Ultrathurrax) in a buffer containing 20 mM Na-HEPES and 10 mM EDTA (pH 7.4) and centrifuged at 20.000 rpm for 15 min. The resulting pellet was resuspended, homogenized and centrifuged (20.000 rpm, 15 min) in a buffer containing 20 mM Na-HEPES and 0.1 mM EDTA (pH 7.4, buffer 2). The resulting pellet was resuspended in buffer 2 and protein concentration was measured (BCA protein Assay, Pierce). The homogenate was kept cold during the whole procedure. The membranes were kept at −80° C. until use. Assay was performed in a 384 well Optiplate (PerkinElmer) in a total volume of 40 ul. Membranes were mixed with SPA beads.

rat calcitonin receptor [3] = molecular target: T1, rat calcitonin receptor; experiment: SPA competition vs 125I-calcitonin, membranes of BHK cells with rat calcitonin receptor (Assay VIII)
[4] = molecular target: T3, rat amylin receptor (rat calcitonin receptor + rat RAMP 3) (rat, UniProt P32214 25-516; Q9JJ73 23-147); experiment: SPA competition vs 125I-rat amylin, membranes of BHK cells with rat calcitonin receptor + rat RAMP3 (Assay VI)
T3 construct: whole, on cells; Membranes prepared from transiently transfected BHK tk'ts 13 cells (Assay VI); also called rAmylin-R; rAmylin
T3 sequence (looked up) 1: T1 sequence (looked up)
T3 sequence (looked up) 2: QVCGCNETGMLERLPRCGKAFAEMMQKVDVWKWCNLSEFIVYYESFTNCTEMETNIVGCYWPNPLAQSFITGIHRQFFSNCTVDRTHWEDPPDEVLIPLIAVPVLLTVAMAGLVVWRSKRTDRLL
Method: The binding assay was performed using scintillation proximity assay (SPA) beads (RPNQ0001) from PerkinElmer and cell membranes from the Amylin 3(a)/CRE-luc cells (as described in Assay (II)) were used. Membranes were prepared in the following way; the cells were rinsed with PBS and incubated with Versene for approximately 5 min before harvesting. The cells were flushed with PBS and the cell-suspension was centrifuged for 5 min at 1000 rpm. Cells were homogenized (ultrathurrax) in a buffer containing 20 mM Na-HEPES and 10 mM EDTA (pH 7.4) and centrifuged at 20.000 rpm for 15 min. The resulting pellet was resuspended, homogenized and centrifuged (20.000 rpm, 15 min) in a buffer containing 20 mM Na-HEPES and 0.1 mM EDTA (pH 7.4, buffer 2). The resulting pellet was resuspended in buffer 2 and protein concentration was measured (BCA protein Assay, Pierce). The homogenate was kept cold during the whole procedure. The membranes were kept at −80° C. until use. The assay was performed in a 384 well Optiplate (PerkinElmer) in a total volume of 40 ul. Membranes were mixed with SPA beads. Final concentration of membranes 35 ng/μL final and SPA beads was 0.05 mg/well. Test-compounds were dissolved in DMSO and further diluted in assay buffer (50 mM Hepes, pH 7.4, 1 mM CaCl2, 5 mM MgCl₂, 0.1% OA and 0.02% Tween20). […] The final mixture was incubated with shaking at 400 rpm for 120 min at 25° C. prior to centrifugation (1500 rpm, 10 min). Samples were analyzed on TopCounter™ (Packard). The IC₅₀ was calculated using (one site binding competition analysis) GraphPad Prism5 as a measure of receptor affinity.
Cells were grown in DMEM with 10% FBS and 1% Pen/Strep. Approximately 48 hours after transfection, the cells were harvested and membranes were prepared.

Binder | Ratio rCT/rAmylin binding (rat calcitonin receptor [1]) | Ratio hCT/hAmylin binding [2] | IC50 (rat calcitonin receptor [3]) | IC50 [4]
B1 | 104 | 65.3 | 46.8 nM | 0.45 nM
B2 | 76.3 | 101 | 29.4 nM | 0.386 nM
